Results on three molecules are retold here after patent US20200299380A1 (published 2020).

For assay [1], the target named is T1, MICA*007 expressed at the cell surface (human, UniProt Q29983 24-297).
T1 construct: also called C1R-MICA*007; C1R-MICA*07
T1 chain: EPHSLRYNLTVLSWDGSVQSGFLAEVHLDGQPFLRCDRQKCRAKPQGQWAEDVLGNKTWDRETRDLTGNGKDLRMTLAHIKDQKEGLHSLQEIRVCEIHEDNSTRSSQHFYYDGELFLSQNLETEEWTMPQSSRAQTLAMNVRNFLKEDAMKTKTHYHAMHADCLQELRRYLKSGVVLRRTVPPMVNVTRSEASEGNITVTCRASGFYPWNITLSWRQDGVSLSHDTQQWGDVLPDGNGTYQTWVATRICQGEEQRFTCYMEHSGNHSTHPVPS
Nature of the assay: flow cytometry on C1R transfectant cells, 4-parameter logistic fit. Background: A flow cytometer gives signals particle by particle.

The target in assay [2] is T2, MICA*001 expressed at the cell surface (human, UniProt Q29983 24-297).
T2 sequence: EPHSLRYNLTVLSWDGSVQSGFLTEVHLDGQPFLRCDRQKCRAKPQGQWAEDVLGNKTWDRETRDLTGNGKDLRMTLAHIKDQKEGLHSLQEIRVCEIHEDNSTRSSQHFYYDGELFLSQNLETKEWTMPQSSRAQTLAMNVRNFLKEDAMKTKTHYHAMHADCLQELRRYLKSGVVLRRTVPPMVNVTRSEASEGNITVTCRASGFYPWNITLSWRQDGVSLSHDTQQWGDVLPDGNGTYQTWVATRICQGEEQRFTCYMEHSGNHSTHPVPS
Nature of the assay: cell-based or functional assay.

The next assay addresses T3, MICA*001-BirA (human, UniProt Q29983 24-297).
T3 construct: also called MICA-BirA; MICA*01-BirA; not shown: BirA tag
T3 sequence: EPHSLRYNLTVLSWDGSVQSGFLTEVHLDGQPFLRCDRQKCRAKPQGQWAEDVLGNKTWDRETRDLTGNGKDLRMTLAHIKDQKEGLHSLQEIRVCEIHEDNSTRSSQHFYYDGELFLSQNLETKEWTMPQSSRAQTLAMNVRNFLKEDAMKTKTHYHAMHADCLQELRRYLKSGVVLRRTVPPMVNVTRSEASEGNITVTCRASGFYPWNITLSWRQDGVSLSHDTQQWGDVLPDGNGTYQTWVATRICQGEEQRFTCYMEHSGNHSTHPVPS
Nature of the assay: SPR single cycle kinetics, monovalent mean KD at pH 7.4, antibody captured on Protein-G chip, MICA-BirA injected. The protocol: For monovalent affinity measurement, chimeric anti-MICA antibodies were captured onto a Protein-G chip.
Affinities were determined using single cycle kinetics (SCK). SCK cycles were as follows: Successive 120s injections at 30 μl/min of 5 serial dilutions (0.01 to 100 nM) of MICA-His or MICA-BirA in ascending order (or of buffer for the blank injections to be subtracted during the analysis). After the last concentration is injected, complex is left to dissociate for 600s before regeneration by a 10s injection of appropriate regeneration buffer at 40 μl/min. After the regeneration, chip is left to stabilise for 60s in running buffer. Curves are fitted using Biacore T100 Evaluation software.

Assay [3] addresses T4, MICB-Fc (R&D Systems 1599-MB) (human, UniProt Q29980 23-298, limits assumed).
T4 construct: Bought; also called human MICB-Fc; not shown: Fc of the bought fusion protein
T4 sequence: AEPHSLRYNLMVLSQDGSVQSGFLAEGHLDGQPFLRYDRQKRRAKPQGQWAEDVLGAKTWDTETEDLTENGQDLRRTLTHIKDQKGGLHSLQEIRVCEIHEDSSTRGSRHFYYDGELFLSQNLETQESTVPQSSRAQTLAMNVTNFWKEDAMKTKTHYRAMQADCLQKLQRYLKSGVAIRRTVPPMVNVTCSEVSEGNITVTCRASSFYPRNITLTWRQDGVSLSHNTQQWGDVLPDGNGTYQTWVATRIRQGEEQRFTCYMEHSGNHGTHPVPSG
Nature of the assay: SPR, antibody at 10 µg/ml injected over immobilized MICB-Fc. The procedure:
For cross-binding study, the human ULBP-1-Fc (R&D systems*), MICB-Fc (*), ULBP-2-Fc (*) and ULBP-3-Fc (*) recombinant proteins were covalently immobilized respectively on the flow cell one to four of a CM5 sensorchip. Anti-MICA antibodies (at a constant concentration of 10 μg/ml) were injected for 2 minutes at a flow rate of 10 μl/min onto the four flow cells in parallel. After each cycle, Sensorchip was regenerated by a five second injection of appropriate regeneration buffer.
For orientation: SPR reads the build-up and loss of mass on a sensor chip optically.

Assay [4] deals with T5, MICA*008 expressed at the cell surface (human, UniProt Q29983 24-297).
T5 construct: also called C1R-MICA*008; C1R-MICA*08
T5 chain: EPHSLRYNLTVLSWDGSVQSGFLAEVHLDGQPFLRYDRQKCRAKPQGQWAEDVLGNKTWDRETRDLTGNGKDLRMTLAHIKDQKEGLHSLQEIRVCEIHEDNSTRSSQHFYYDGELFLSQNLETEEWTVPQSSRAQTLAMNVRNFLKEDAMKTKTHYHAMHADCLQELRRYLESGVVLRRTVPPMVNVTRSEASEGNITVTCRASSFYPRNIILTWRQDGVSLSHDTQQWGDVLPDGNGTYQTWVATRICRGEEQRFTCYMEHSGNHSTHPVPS
Nature of the assay: flow cytometry on C1R transfectant cells. The procedure:
The binding of antibodies obtained from the first, second and third immunization series (including CHG1-M-MIA-19E9, CHG1-M-MIA-9C10, CHG1-M-MIA-6E4, CHG1-M-MIA-20C6, CHG1-M-MIA-16A8, CHG1-M-MIA-12A10, CHG1-M-MIA-10A7, CHG1-M-MIA-18E8, CHG1-M-MIA-10F3, CHG1-M-MIA-15F9 and CHG1-M-MIA-14B4) were tested for binding to MICA-expressing CR1 transfectant cells C1R-MICA*001, C1R-MICA*004, C1R-MICA*007 and C1R-MICA*008 (Pr. A. Steinle, Eberhard-Karls University Tuebingen, Germany) described in Salih et al. (2003) Blood 102(4): […]. Binding was analyzed by flow cytometry.
Cells were harvested and stained in PBS 1×/BSA 0.2%/EDTA 2 mM buffer during 30 minutes at 4° C. using a dose-range of the anti-MICA mAbs. After two washes in staining buffer, cells were stained for 30 min at 4° C. with mouse anti-human IgG1-PE monoclonal antibodies (1/11). After two washes, stainings were acquired on a BD FACS Canto II and analyzed using the FlowJo software.

B1: CHG1-M-MIA-20C6 (antibody, V domains shown)
VH: QITLKESGPGILKPSQTLSLTCSFSGFSLSTSGMGVGWIRQPSGKGLEWLAHIWWDDDKYYNPSLKSQLTISKDTSRNQVFLRITSVDTADTATYYCARRTQGYFDYWGQGTTLTVSS
VL: DIVMTQSPATLSVTPGDRVSLSCRASQSISDYLHWYQQKSHESPRLLIKYASQSISGIPSRFSGSGSGSDFTLSINSVEPEDVGVYYCQNGHSFPWTFGGGTKLEIKR
notes: also called chimeric anti-MICA 20C6
The EC50 is the concentration needed to bring the measured effect to its halfway point. Read a high EC50 as a need for much substance. Broadly, the Kd is the equilibrium constant for the complex coming apart. Lower therefore signals higher affinity. As to B1, the EC50 in assay [1] is 0.4 µg/mL. Besides, the “CDC: EC50 of the increase in dead (7-AAD positive) Raji-MICA*01 cells with human complement” value in assay [2] is 0.97 µg/mL. The molecule further showed a dissociation constant Kd with MICA*001-BirA of 40 nM.

B2: CHG1-M-MIA-6E4 (antibody, V domains shown)
VH: EVQLVESGGALVKPGGSLKLSCAASGFTFSYYAMSWVRQTPEKRLEWVATISRGGNYIYYTDSVKGRFTISRDNAKNTLYLQMTSLRSEDTAMFYCASISDYDGAWLAYWGQGTTLTVSS
VL: DVLMTQTPLSLPVSLGDQASISCRSSQSIIHTNGNTYLEWYLQKPGQSPKLLIYKISNRFSGVPDRFSGSGSGTDFTLKISRVEAEDLGVYYCFQGSHVPWTFGGGTKLEIKR
notes: also called chimeric anti-MICA 6E4
In turn, B2 had an EC50 in assay [1] of 1.23 µg/mL. Besides, in assay [2], the “CDC: EC50 of the increase in dead (7-AAD positive) Raji-MICA*01 cells with human complement” value was 1.01 µg/mL. For the same molecule, the binding result in assay [3] and in assay [4] was “binds” throughout. In the assay with MICA*001-BirA, this molecule came in with a Kd of 8.9 nM.

B3: CHG1-M-MIA-16A8 (antibody, V domains shown)
VH: EVQLVESGGGLVKPGGSLKLSCAASGFTFSRYAMSWVRQTPEKRLEWVATIFSGGSYTYYPDSVKGRFTISRDNANNTLYLQMSSLKAEDTAMYFCARPNWERTFDYWGQGTTLTVSS
VL: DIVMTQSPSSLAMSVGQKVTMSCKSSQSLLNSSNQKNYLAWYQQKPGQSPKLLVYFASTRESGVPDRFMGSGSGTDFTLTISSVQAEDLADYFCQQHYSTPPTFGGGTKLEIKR
notes: also called CHG1-M-MIA2-16A8; chimeric anti-MICA 16A8
As to B3, the binding result in assay [3] is reported as “binds”. In the assay with MICA*001-BirA, this molecule had a Kd of 11.5 nM.
